In general, Kd refers to the constant that tells how readily two partners part at equilibrium.

From patent US20240002495A1 (MITSUBISHI TANABE PHARMA, published 2024) come the findings set out here.

Experiment [1] addresses T1, recombinant human IL-33 protein (residues 112 to 270) (ILC0701, ATGen Co. Ltd) (human, UniProt O95760 112-270).
T1 construct: bought protein
T1 sequence: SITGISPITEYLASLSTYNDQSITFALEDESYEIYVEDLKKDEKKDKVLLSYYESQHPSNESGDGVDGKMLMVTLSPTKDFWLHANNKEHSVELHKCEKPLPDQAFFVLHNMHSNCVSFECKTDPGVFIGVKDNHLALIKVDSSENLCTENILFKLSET
Description: KinExA in PBS, neutral-purified IgG. On the procedure: Each test antibody (IgG) (“antibody (IgG)” indicates an antibody having a molecular form of IgG; hereinafter, the same representation is used) was analyzed to confirm the affinity with the human IL-33 protein by measuring dissociation constant (Kd) between each test antibody and the human IL-33 protein in PBS by kinetic exclusion assay (KinExA) (KinExA3200, available from Sapidyne Instruments, Inc.). Mixture samples of a test antibody and a human IL-33 protein (ILC0701, available from ATGen Co. Ltd) were prepared. The human IL-33 protein was titrated to a constant concentration of test antibody (final concentration: several tens of pM to several hundreds of pM) over a wide concentration range of the human IL-33 protein (so that it covered the concentrations of the human IL-33 protein resulting from 12-step serial doubling dilutions, i.e. one- to 2048-fold, with the upper limit of final concentration set to several nM to several tens of nM). The mixture samples were incubated at a room temperature until the antigen-antibody reaction reached equilibrium. After the reaction reached equilibrium, the percentage of free anti-IL-33 antibody in each sample was analyzed using KinExA3200. The values of Kd were calculated by fitting the plot of percentages of anti-IL-33 antibody not bound to the human IL-33 protein (vertical axis) and concentrations of antigen (horizontal axis) to a theoretical formula, using a KinExA data analysis program (KinExA Pro Software v3.5.3, available from Sapidyne Instruments, Inc.). Beads for capturing the anti-IL-33 antibody were prepared by suspending 50 mg of Azlactone beads (Sapidyne) in 1 mL of coating solution (10 μg/mL human IL-33 protein (ILC0701, available from ATGen Co. Ltd), 50 mM sodium carbonate at pH of 9.6) and incubating the solution at a room temperature for one hour. The antibody for detection used was anti-human F(ab)′2-DyLight649 (Jackson, 309-495-006).

For experiment [2], the target named is T1, recombinant human IL-33 protein …. Description: SPR (Biacore T200), human IL-33 (ILC0701) immobilized on CM5, Calibration Free Concentration Analysis of the preserved antibody against a control-preserved sample. On the procedure: Each alkaline-purified antibody was dissolved in a citrate buffer (50 mM citric acid; 150 mM NaCl (pH: 6.3)) at a concentration of about 10 mg/mL, and was preserved at a temperature of 40° C. for four weeks, to evaluate the preservation stability of each test antibody (IgG). For evaluation of the monomer purity of each antibody after the preservation, monomer purity was measured by size exclusion chromatography analysis (SEC) and microchip capillary SDS electrophoresis (mCE-SDS), and antigen-binding activity was measured by surface plasmon resonance.
In order to confirm the presence of the antigen-binding ability after the preservation, the antigen-binding activity was measured with a surface plasmon resonance system, Biacore T200 (available from GE Healthcare). A human IL-33 protein (ILC0701, available from ATGen Co. Ltd) was immobilized onto a Sensor Chip CM5 (GE Healthcare) (the amount of immobilized protein was about 3000 to 6000 RU) with Amine Coupling Kit (GE Healthcare). Each preserved antibody solution was then diluted to 10-fold with a citric buffer (50 mM citric acid, 150 mM NaCl (pH: 6.3)), and the resulting solution was analyzed to measure the total protein concentration in the solution, using a microvolume spectrophotometer, Astragene II (Astranet Systems, Ltd.) (protein concentration: about 1 mg/mL). The antibody solution after the measurement of the total protein concentration was diluted to 1000-fold with HBS-EP buffer (10 mM HEPES, 150 mM NaCl, 3 mM EDTA, 0.05% (v/v) Surfactant P20 (at pH of 7.4)). The analyte was thereby prepared. The measurement temperature was 25° C. Each analyte was added for 36 seconds at two flow rates of 5 μL/min and 100 μL/min to obtain sensorgrams of the association phase. The sensorgrams were then analyzed by Calibration Free Concentration Analysis using a data analysis program (GE Healthcare, Biacore T200 Evaluation Software v1.0) to determine the concentration of the antibody having antigen-binding activity. As control, each test antibody after preservation at a temperature of 4° C. for four weeks was also analyzed to confirm the antigen-binding activity, to calculate the ratio of antigen-binding activity of each test antibody after the preservation at a temperature of 40° C. for four weeks.
In general terms: In SPR one partner is held on a chip, and binding of the other changes the refractive index at the surface.

B1: A10-1C04 (IgG) (antibody, V domains shown)
VH: EVQLLESGGGLVQPGGSLRLSCAASGFTFSDYYMNWVRQAPGKGLEWVSSISRYSSYIYYADSVKGRFTISRDNSKNTLYLQMNSLRAEDTAVYYCARDIGGMDVWGQGTLVTVSS
VL: QSVLTQPPSASGTPGQRVTISCTGSSSNIGAVYDVHWYQQLPGTAPKLLIYRNNQRPSGVPDRFSGSKSGTSASLAISGLRSEDEADYYCQTYDSSRWVFGGGTKLTVL
notes: tested as neutral-purified and as alkaline-purified antibody; also called V1; IGN1
As to B1, in experiment [1], the Kd amounted to 0.166 nM. For the same molecule, the “% Active IgG (antigen binding activity after preservation at 40 C for 4 W)” value in experiment [2] worked out at 99.3%.
